Where “and” joins values, the source holds several entries; their conditions need not be identical. Identical values can stand only once.

The values that follow come from paper PMC5772516.

Assay [1] concerns the target vascular endothelial growth factor (VEGF165) (human). Briefly: solid-state nanopore translocation; 0.2 nM to 100 nM VEGF, pH 7.2, V = −500 mV, ~5–6.5 nm pore; 1 M KCl, 50 mM phosphate buffer, 5 mM EDTA, 22.0 ± 0.5 °C; 0.5 mM TCEP added afterwards shifts the events to single-level group A (71%).
The target is the same in assay [2]. Briefly: solid-state nanopore translocation; 20 nM VEGF, pH 7.6, V = +500 mV, ~5.5 nm pore in 12 nm SiNx; 1 M KCl, 50 mM phosphate buffer, 5 mM EDTA, 22.0 ± 0.5 °C; then 0.5 mM TCEP added in the same pore (events converge into one lower-amplitude group, 92%).
For assay [3] the target is unchanged. In words: SDS-PAGE; VEGF solution before reduction (non-reducing).

Consider “vascular endothelial growth factor (VEGF165) (natural protein)”, for which, in assay [1], the percent of translocation events in group B (dimer) at 20 nM worked out at 12%; the percent of translocation events in level B and B/A (dimeric state) at 0.2 nM worked out at 6%; the percent of translocation events in level B and B/A (dimeric state) at 100 nM turned out to be 59%; the percent of translocation events with a B to A multi-level pattern at 20 nM was 28%. For the same substance, in assay [1], the stoichiometry N worked out at 2. Also, the stoichiometry N in assay [2] was 2 and 3. Further, the stoichiometry N in assay [3] was 2 and 3.

By stoichiometry N is commonly meant a count of units in the complex or per binding partner.
